Data as given in patent US20150210768A1, “Methods and Compounds for Preventing, Treating and Diagnosing an Inflammatory Condition” (Westfaelische Wilhelms-Universitaet Muenster, priority 2012, published 2015).

Legend:
TLR4/MD2 [1] = target: T1, TLR4/MD2 (Homo sapiens, UniProt O00206); assay: Immunoprecipitation of peptides on bead-coupled TLR4/MD2, eluates analysed by MALDI-TOF mass spectrometry; format: binding; set-up: purchased R&D SYSTEMS; settings: bead-coupled his-tagged rhTLR4/MD2, 1 mM Calcium, 3 h at 4° C.; MALDI-TOF detection; FIG. 3B, 4, 5
Description: Anti-His antibody (5 μL, 0.5 mg/mL, Invivogen) and his-tagged rhTLR4/MD2 (5 μL, 1 mg/mL, carrier free, R&D SYSTEMS) were mixed and coupled to Protein A/G Agarose (50 μl, Pierce, Thermo Scientific). Trypsin digested peptides of S100A9 were added for 3 h at 4° C. in the presence of 1 mM Calcium. After washing of the beads in HBS/1 mM Ca-buffer for three times bound peptidic fragments were eluted by addition of 10 mM TRIS/2 mM EDTA-buffer and analysed by ESI-QIT- and MALDI-TOF-mass spectrometry. Identical experiments were performed to analyze the binding of the chemical synthesized peptides of S100A9 (aa63-79), S100A8 (aa55-71) and the corresponding control peptides aa63-79 AS and aa55-71 A3.

his-tagged rhTLR4/MD2 [2] = target: T2, his-tagged rhTLR4/MD2 (human, UniProt O00206 24-631; Q9Y6Y9 19-160); assay: modified S100A9 ELISA, TLR4/MD2 coated on the plate, 2 ug/ml S100A9 protein, absorbance at 450 nm (FIG. 6C)
T2 construct: Bought recombinant human complex (carrier free, R&D SYSTEMS), his-tagged; In the pull-down it was captured by anti-His antibody on Protein A/G agarose; in the ELISA it was coated on the plate; also called TLR4/MD2 complex; TRLR4/MD2
Description: (§1) Binding of S100A9 proteins to TLR4/MD2 was analysed by a modified S100A9-ELISA. Briefly, TLR4/MD2 was coupled to the wells of a 96-well plate and served as capturing molecule. After blocking of the unspecific binding sites by PBS/5% skim milk powder plates were washed three times. S100A9-wt or mutant S100A9 proteins were added at a concentration of 2 μg/ml each in the presence and absence of 100 μM Calcium and incubated for two hours at room temperature. Unbound S100A9 was removed by washing the plates for three times followed by the addition of a primary anti-S100A9-antibody (1 μg/ml, polyclonal, rabbit). After a washing step the secondary anti-rabbit-IgG-antibody coupled to HRP (1 μg/ml from Cell Signalling) was added. TMB was used as substrate for HRP to quantify binding by absorbance readings at 450 nm in an ELISA reader (Anthos Mirkosysteme).

human monocytes = assay: Stimulation of human monocytes, TNFα release quantified by ELISA; format: cell-based; settings: for activation of monocytes (TNFα released into the culture medium): human monocytes stimulated for four hours, TNFα by ELISA, FIG. 1; for effect of mutation on function of the S100A9 homodimer: purified mutant S100A9 proteins, alanine exchange, binding to and activation of TLR4
Excerpt: Using standard techniques known in the art, the inventors expressed the individual human proteins S100A8 and S100A9 in recombinant form, and purified them. After generating homodimers and heterodimers, they analysed the properties of the complexes. FIG. 1 illustrates the stimulation of human monocytes for four hours with the indicated concentrations of (A) recombinant human S100A8, recombinant human S100A9 or human S100A8/S100A9, and (B) recombinant human S100A8/S100A9, recombinant human S100A8/S100A9 (N69A) or S100A8/S100A9 (E78A). TNFα released into the culture medium was quantified by means of ELISA.
Monocytes were isolated from human buffy coats by Ficoll-Paque and subsequent Percoll density centrifugation (Pharmacia, Freiburg, Germany) Cells were cultured in Teflon bags (Biofolie 25; Heraeus Instruments, Hanau, Germany) using McCoy's 5a medium supplemented with 15% fetal calf serum for 1 day before stimulation. Monocytes were incubated for 4 hours with different dosis of hS100A8, hS100A9, hS100A8/S100A9 or the modified proteins as indicated in the figures and TNF-α concentrations in supernatants were determined by ELISA (OptEIA, BD Biosciences, Germany).
Release of cytokine TNF-α was measured in the culture supernatants by ELISA (OptEIA, BD Biosciences). […]

his-tagged rhTLR4/MD2 [3] = target: T2, his-tagged rhTLR4/MD2; assay: modified S100A9 ELISA, TLR4/MD2 coated on the plate, 2 ug/ml S100A9 protein, absorbance at 450 nm
Description: as §1

TLR4/MD2 [4] = target: T1, TLR4/MD2; assay: Binding of S100A9-wt and mutant proteins to TLR4/MD2 (modified S100A9-ELISA); settings: 2 μg/ml protein, plate-coupled TLR4/MD2, absorbance 450 nm; FIG. 6B, 6C
Description: as §1

T1 sequence (O00206 24-631 limits assumed): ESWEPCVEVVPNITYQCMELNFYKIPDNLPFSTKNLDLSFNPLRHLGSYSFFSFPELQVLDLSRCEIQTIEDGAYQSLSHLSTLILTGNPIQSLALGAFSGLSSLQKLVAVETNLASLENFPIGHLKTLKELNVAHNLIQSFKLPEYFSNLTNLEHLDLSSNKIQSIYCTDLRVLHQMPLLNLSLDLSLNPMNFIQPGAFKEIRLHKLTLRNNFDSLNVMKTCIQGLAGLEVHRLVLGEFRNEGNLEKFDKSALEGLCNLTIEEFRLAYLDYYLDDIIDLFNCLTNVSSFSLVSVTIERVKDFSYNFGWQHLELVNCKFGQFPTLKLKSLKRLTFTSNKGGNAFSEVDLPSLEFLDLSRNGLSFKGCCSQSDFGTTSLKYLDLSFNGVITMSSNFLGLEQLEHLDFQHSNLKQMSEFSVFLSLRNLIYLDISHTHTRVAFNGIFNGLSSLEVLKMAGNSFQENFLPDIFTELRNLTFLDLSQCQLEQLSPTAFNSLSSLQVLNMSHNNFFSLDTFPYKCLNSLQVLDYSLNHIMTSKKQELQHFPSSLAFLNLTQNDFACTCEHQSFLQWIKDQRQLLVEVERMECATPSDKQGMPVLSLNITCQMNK
T1 sequence (Q9Y6Y9 17-160 partner limits assumed): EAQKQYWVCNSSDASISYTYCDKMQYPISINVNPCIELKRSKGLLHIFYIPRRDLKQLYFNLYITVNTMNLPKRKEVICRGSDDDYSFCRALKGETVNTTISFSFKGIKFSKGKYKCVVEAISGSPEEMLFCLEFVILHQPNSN
T2 sequence (O00206 24-631 limits assumed, chain 1 of 2): as the sequence (O00206 24-631 limits assumed) above
T2 sequence (Q9Y6Y9 19-160 limits assumed, chain 2 of 2): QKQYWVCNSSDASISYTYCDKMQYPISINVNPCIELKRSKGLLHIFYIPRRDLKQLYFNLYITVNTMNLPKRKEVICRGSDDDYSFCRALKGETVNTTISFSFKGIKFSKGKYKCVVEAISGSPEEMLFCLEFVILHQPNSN

Row | binding result (his-tagged rhTLR4/MD2 [3]) | binding to the receptor compared to non-mutated protein (S100A9 wt) (TLR4/MD2 [4]) | Molecule | effect of mutation on function of the S100A9 homodimer (human monocytes) | also measured
1 | binds | weaker binding | S100A9Q73A (ligand, Purified recombinant mutant of human S100A9, homodimer; also called S100A9 Q73A mutant) MTCKMSQLERNIETIINTFHQYSVKLGHPDTLNQGEFKELVRKDLQNFLKKENKNEKVIEHIMEDLDTNADKALSFEEFIMLMARLTWASHEKMHEGDEGPGHHHKPGLGEGTP | loss of function | –
2 | binds | weaker binding | S100A9E64A (ligand, Purified recombinant mutant of human S100A9, homodimer; also called S100A9 E64A mutant) MTCKMSQLERNIETIINTFHQYSVKLGHPDTLNQGEFKELVRKDLQNFLKKENKNEKVIEHIMADLDTNADKQLSFEEFIMLMARLTWASHEKMHEGDEGPGHHHKPGLGEGTP | loss of function | –
3 | binds | weaker binding | S100A9E77A (ligand, Purified recombinant mutant of human S100A9, homodimer; also called S100A9 E77A mutant) MTCKMSQLERNIETIINTFHQYSVKLGHPDTLNQGEFKELVRKDLQNFLKKENKNEKVIEHIMEDLDTNADKQLSFAEFIMLMARLTWASHEKMHEGDEGPGHHHKPGLGEGTP | loss of function | –

Further lines, the molecule ahead of its results:

Row | Molecule | binding result (his-tagged rhTLR4/MD2 [3]) | binding to the receptor compared to non-mutated protein (S100A9 wt) (TLR4/MD2 [4]) | effect of mutation on function of the S100A9 homodimer (human monocytes) | also measured
4 | 55-71: synthetic peptide, positions 55-71 of human S100A8, complete C-terminal EF hand, FKELDINTDGAVNFQEF | – | – | – | binding to TLR4/MD2 (TLR4/MD2 [1]): able to bind to TLR4/MD2
5 | 63-79 A5: control peptide 63-79 of S100A9 with E64A, D65A, K72A, Q73A and E77A exchanged to alanine (MAALDTNADAALSFAEF) [reference compound] | – | – | – | binding to TLR4/MD2 (TLR4/MD2 [1]): no binding could be detected
6 | 63-79: synthetic peptide, positions 63-79 of S100A9, complete C-terminal EF hand, MEDLDTNADKQLSFEEF | – | – | – | binding to TLR4/MD2 (TLR4/MD2 [1]): able to bind to TLR4/MD2
7 | No. 15: tryptic peptide of human S100A9, amino acid positions 73-85 (QLSFEEFIMLMAR, SEQ ID NO: 3) (QLSFEEFIMLMARTTT) | – | – | – | binding to TLR4/MD2 (TLR4/MD2 [1]): specific interaction with TLR4/MD2
8 | S100A9 double mutant with alanine at both D65 and Q73 (ligand, Purified recombinant double mutant of human S100A9, homodimer) MTCKMSQLERNIETIINTFHQYSVKLGHPDTLNQGEFKELVRKDLQNFLKKENKNEKVIEHIMEALDTNADKALSFEEFIMLMARLTWASHEKMHEGDEGPGHHHKPGLGEGTP | – | – | – | binding result (his-tagged rhTLR4/MD2 [2]): binds
9 | S100A9: recombinant human protein S100A9 (Uniprot P06702), used as homodimer (protein) MTCKMSQLERNIETIINTFHQYSVKLGHPDTLNQGEFKELVRKDLQNFLKKENKNEKVIEHIMEDLDTNADKQLSFEEFIMLMARLTWASHEKMHEGDEGPGHHHKPGLGEGTP | – | – | – | activation of monocytes (TNFα released into the culture medium) (human monocytes): induce a particular strong, pro-inflammatory response in monocytes; activation of monocytes (TNFα released into the culture medium) (human monocytes; listed as homodimers of S100A9): induce this response
10 | heterotetrameric complex between S100A8 and S100A9: complex of recombinant human S100A8 and S100A9, heterotetramer in presence of calcium (protein) chain 1: MLTELEKALNSIIDVYHKYSLIKGNFHAVYRDDLKKLLETECPQYIRKKGADVWFKELDINTDGAVNFQEFLILVIKMGVAAHKKSHEESHKE chain 2: MTCKMSQLERNIETIINTFHQYSVKLGHPDTLNQGEFKELVRKDLQNFLKKENKNEKVIEHIMEDLDTNADKQLSFEEFIMLMARLTWASHEKMHEGDEGPGHHHKPGLGEGTP | – | – | – | activation of monocytes (TNFα released into the culture medium) (human monocytes): does not induce an inflammatory response in monocytes; activation of monocytes (TNFα released into the culture medium) (human monocytes; listed as heterotetrameric complex of s100A8 and S100A9): did not show activating properties that would be comparable to the individual components
11 | S100A9 double mutant with alanine at both E64 and Q73 (ligand, Purified recombinant double mutant of human S100A9, homodimer) MTCKMSQLERNIETIINTFHQYSVKLGHPDTLNQGEFKELVRKDLQNFLKKENKNEKVIEHIMADLDTNADKALSFEEFIMLMARLTWASHEKMHEGDEGPGHHHKPGLGEGTP | – | – | – | binding result (his-tagged rhTLR4/MD2 [2]): binds
12 | S100A9 double mutant with alanine at both E64 and D65 (ligand, Purified recombinant double mutant of human S100A9, homodimer) MTCKMSQLERNIETIINTFHQYSVKLGHPDTLNQGEFKELVRKDLQNFLKKENKNEKVIEHIMAALDTNADKQLSFEEFIMLMARLTWASHEKMHEGDEGPGHHHKPGLGEGTP | – | – | – | binding result (his-tagged rhTLR4/MD2 [2]): binds
13 | S100A9K72A (ligand, Purified recombinant mutant of human S100A9, homodimer; also called S100A9 K72A mutant) MTCKMSQLERNIETIINTFHQYSVKLGHPDTLNQGEFKELVRKDLQNFLKKENKNEKVIEHIMEDLDTNADAQLSFEEFIMLMARLTWASHEKMHEGDEGPGHHHKPGLGEGTP | binds | not significantly different from the wild type protein | hardly any effect | –
14 | S100A9D65A (ligand, Purified recombinant mutant of human S100A9, homodimer; also called S100A9 D65A mutant) MTCKMSQLERNIETIINTFHQYSVKLGHPDTLNQGEFKELVRKDLQNFLKKENKNEKVIEHIMEALDTNADKQLSFEEFIMLMARLTWASHEKMHEGDEGPGHHHKPGLGEGTP | binds | weaker binding | loss of function | –
15 | S100A9 double mutant with alanine at both Q73 and E77 (ligand, Purified recombinant double mutant of human S100A9, homodimer) MTCKMSQLERNIETIINTFHQYSVKLGHPDTLNQGEFKELVRKDLQNFLKKENKNEKVIEHIMEDLDTNADKALSFAEFIMLMARLTWASHEKMHEGDEGPGHHHKPGLGEGTP | – | – | – | binding result (his-tagged rhTLR4/MD2 [2]): binds
16 | S100A9R85A (ligand, Purified recombinant mutant of human S100A9, homodimer; also called S100A9 R85A mutant) MTCKMSQLERNIETIINTFHQYSVKLGHPDTLNQGEFKELVRKDLQNFLKKENKNEKVIEHIMEDLDTNADKQLSFEEFIMLMAALTWASHEKMHEGDEGPGHHHKPGLGEGTP | binds | not significantly different from the wild type protein | hardly any effect | –
17 | S100A8: recombinant human protein S100A8 (Uniprot P05109), used as homodimer (protein) MLTELEKALNSIIDVYHKYSLIKGNFHAVYRDDLKKLLETECPQYIRKKGADVWFKELDINTDGAVNFQEFLILVIKMGVAAHKKSHEESHKE | – | – | – | activation of monocytes (TNFα released into the culture medium) (human monocytes): induce a particular strong, pro-inflammatory response in monocytes; activation of monocytes (TNFα released into the culture medium) (human monocytes; listed as homodimers of S100A8): induce this response
